Experiments:
[1] = molecular target: mouse CLDN6 fused to GFP, expressed on engineered HEK293T cells (mouse) (UniProt Q9Z262); experiment: FACS, 293T clone with mouse CLDN6, dose not given
[2] = molecular target: human CLDN6 fused to GFP, expressed on engineered HEK293T cells (HEK293T-CLDN6-mGFP) (human) (UniProt P56747); experiment: FACS, 0.3 µg Ab, 293T clone with human CLDN6
[3] = molecular target: CLDN6 endogenously expressed by human cancer cell lines (ARK2, OVCA429) (human) (UniProt P56747); experiment: FACS, 1.5 µg Ab, OVCA429 cells
[4] = molecular target: CLDN6 endogenously expressed by human cancer cell lines (ARK2, OVCA429) (human) (UniProt P56747); experiment: FACS, 0.3 µg Ab, ARK2 cells
[5] = molecular target: human CLDN6 fused to GFP, expressed on engineered HEK293T cells (HEK293T-CLDN6-mGFP) (human) (UniProt P56747); experiment: FACS, 1.5 µg Ab, 293T clone with human CLDN6
[6] = molecular target: CLDN6 endogenously expressed by human cancer cell lines (ARK2, OVCA429) (human) (UniProt P56747); experiment: FACS, 1.5 µg Ab, ARK2 cells

CLDN6 endogenously expressed by human cancer cell lines (ARK2, OVCA429) (human), sequence (P56747 whole entry, the tested form may be a part): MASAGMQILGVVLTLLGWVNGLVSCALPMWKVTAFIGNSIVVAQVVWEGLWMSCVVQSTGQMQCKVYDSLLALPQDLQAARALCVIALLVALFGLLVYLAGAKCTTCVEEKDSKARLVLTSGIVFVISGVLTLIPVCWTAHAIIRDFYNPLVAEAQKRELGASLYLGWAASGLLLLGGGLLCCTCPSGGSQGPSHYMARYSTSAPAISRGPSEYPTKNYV
human CLDN6 fused to GFP, expressed on engineered HEK293T cells (HEK293T-CLDN6-mGFP) (human), sequence (P56747 whole entry, change not shown, the tested form may be a part): as the sequence (P56747 whole entry, the tested form may be a part) above
mouse CLDN6 fused to GFP, expressed on engineered HEK293T cells (mouse), sequence (Q9Z262 whole entry, change not shown, the tested form may be a part): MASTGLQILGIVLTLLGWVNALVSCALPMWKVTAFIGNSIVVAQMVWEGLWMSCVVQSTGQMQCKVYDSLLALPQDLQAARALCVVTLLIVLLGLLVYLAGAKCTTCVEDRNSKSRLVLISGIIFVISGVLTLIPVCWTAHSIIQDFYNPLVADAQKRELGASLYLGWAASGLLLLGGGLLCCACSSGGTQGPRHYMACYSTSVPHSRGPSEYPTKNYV

Q: With 2nd Ab only (antibody) as the substance, how does the FACS fluorescence [1] read?
A: 1060

Q: And the FACS fluorescence [2]?
A: 768

Q: What about the FACS fluorescence [3] of the same substance?
A: 886

Q: What about the FACS fluorescence [4] of the same substance?
A: 1350

Q: What about the FACS fluorescence [5] of the same substance?
A: 768

Q: What about the FACS fluorescence [6] of the same substance?
A: 1350
